US11419921B2, “Methods of treating neurological disorders” (EnClear Therapies, Inc., priority 2018, dated 2022)

Experiments:
(GR)10 [1] = assay: (GR)10 digestion with immobilized proteases in human cerebrospinal fluid (CSF); type: biochemical; details: immobilized enzyme
Protocol: (§1) Protease solutions were prepared at 2 mg/mL in sterile PBS with calcium, magnesium and 200 μL ([…]) were applied to 100 μL of pre-washed NHS-activated agarose resin in 0.8 mL centrifuge columns. Reactions were left 1.5 hour at room temperature with end-to-end mixing, after which resins were washed with 12 resin volumes of PBS. Unreacted sites were blocked with 500 μL of 1M ethanolamine for 15 minutes at room temperature and resins were further washed with 24 resin volumes. Resins were stored at 4 degrees in 500 μL of PBS containing 0.05% sodium azide as preservative.
200 μM of (GR)10 were diluted in human cerebrospinal fluid (CSF) and 400 μL were applied to each immobilized proteases. The reaction was incubated 5 minutes at room temperature with end-to-end mixing. Columns were spun down 1 minute at 1,000 Xg to recover digested GR dipeptides. Columns were washed with 12 resin volumes of PBS. The procedure was repeated with 60 minutes digestion time. 100 μL of each samples were transferred to a clean tube, flash-frozen and subsequently used for LC/MS quantification of GR repeats of different lengths. The remaining 300 μL of each samples were flash-frozen and used to assess neuron toxicity.
(GR)10 was digested with exemplary immobilized enzymes as described above in the subsection titled “(GR)10 digestion with immobilized proteases in CSF” of Example 3. Clostripain experiments were conducted with and without DTT activation (no DTT during digestion). The results obtained after 5 and 60 minutes of reaction time are presented in Table 25 and shown in FIG. 5 (commercial and in-house immobilized trypsin), FIG. 6 (immobilized elastase, FIG. 7A (immobilized clostripain without DTT) and FIG. 7 (immobilized clostripain with 2.5 mM DTT).

(GR)10 [2] = assay: (GR)10 digestion with immobilized proteases (NHS-activated agarose resin) in PBS; type: biochemical; details: normalized
Protocol: as §1
110 μL of 50 μM (GR)10 dipeptide repeats prepared in PBS were added to each immobilized protease and incubated 5 minutes at room temperature with end-to-end mixing. Columns were spun down 1 minute at 1,000 Xg to recover digested GR dipeptides. Columns were washed with 110 μL of PBS to increase (GR)10 recovery. This procedure was repeated with 60 minutes digestion time. 100 μL of each samples were transferred to a new tube and 5 μL of 10% TFA followed by 300 μL of Dilution Solution were added. The reaction mixtures were analyzed by LC/MS to determine the concentration of GR repeats of different lengths.

[3] = resin wash from 60 min reaction

B1: Commercial Trypsin: commercial immobilized trypsin, presumably the ThermoFisher immobilized TPCK-trypsin of Example 2 (protein, UniProt P00760 24-246, looked up)
Serine protease 1: IVGGYTCGANTVPYQVSLNSGYHFCGGSLINSQWVVSAAHCYKSGIQVRLGEDNINVVEGNEQFISASKSIVHPSYNSNTLNNDIMLIKLKSAASLNSRVASISLPTSCASAGTQCLISGWGNTKSSGTSYPDVLKCLKAPILSDSSCKSAYPGQITSNMFCAGYLEGGKDSCQGDSGGPVVCSGKLQGIVSWGSGCAQKNKPGVYTKVCNYVSWIKQTIASN
modifications: TPCK-treated, immobilized on agarose resin
B1 was tested, and the “(GR)1 (normalized uM)” value ((GR)10 [1]; 5 min reaction) was 1117.3 µM, the “(GR)2 (normalized uM)” value ((GR)10 [1]; 5 min reaction) was 0.0 µM and the “(GR)3 (normalized uM)” value ((GR)10 [1]; 5 min reaction) was 0.0 µM. The “(GR)4 (normalized uM)” value ((GR)10 [1]; 5 min reaction) was 0.0 µM, the “(GR)5 (normalized uM)” value ((GR)10 [1]; 5 min reaction) was 0.0 µM and the “(GR)6 (normalized uM)” value ((GR)10 [1]; 5 min reaction) was 0.0 µM. For the same molecule, the “(GR)8 (normalized uM)” value ((GR)10 [1]; 5 min reaction) was 0.0 µM, the “(GR)10 (normalized uM)” value ((GR)10 [1]; 5 min reaction) was 0.0 µM and the “(GR)1 (normalized uM)” value ((GR)10 [1]; 60 min reaction) was 1197.4 µM. The “(GR)2 (normalized uM)” value ((GR)10 [1]; 60 min reaction) was 0.0 µM, the “(GR)3 (normalized uM)” value ((GR)10 [1]; 60 min reaction) was 0.0 µM and the “(GR)4 (normalized uM)” value ((GR)10 [1]; 60 min reaction) was 0.0 µM. For the same molecule, the “(GR)5 (normalized uM)” value ((GR)10 [1]; 60 min reaction) was 0.0 µM, the “(GR)6 (normalized uM)” value ((GR)10 [1]; 60 min reaction) was 0.0 µM and the “(GR)8 (normalized uM)” value ((GR)10 [1]; 60 min reaction) was 0.0 µM. For the same molecule, the “(GR)10 (normalized uM)” value ((GR)10 [1]; 60 min reaction) was 0.0 µM, the “(GR)1” value ((GR)10 [2]; Immobilized - 5 min reaction) was 301.2 µM and the “(GR)2” value ((GR)10 [2]; Immobilized - 5 min reaction) was 0.0 µM. The “(GR)3” value ((GR)10 [2]; Immobilized - 5 min reaction) was 0.0 µM, the “(GR)4” value ((GR)10 [2]; Immobilized - 5 min reaction) was 0.0 µM and the “(GR)5” value ((GR)10 [2]; Immobilized - 5 min reaction) was 0.0 µM. The “(GR)6” value ((GR)10 [2]; Immobilized - 5 min reaction) was 0.0 µM, the “(GR)8” value ((GR)10 [2]; Immobilized - 5 min reaction) was 0.0 µM and the “(GR)10” value ((GR)10 [2]; Immobilized - 5 min reaction) was 0.0 µM. For the same molecule, the “(GR)1” value ((GR)10 [2]; immobilized - 60 min reaction) was 308.6 µM, the “(GR)2” value ((GR)10 [2]; immobilized - 60 min reaction) was 0.0 µM and the “(GR)3” value ((GR)10 [2]; immobilized - 60 min reaction) was 0.0 µM. For the same molecule, the “(GR)4” value ((GR)10 [2]; immobilized - 60 min reaction) was 0.0 µM, the “(GR)5” value ((GR)10 [2]; immobilized - 60 min reaction) was 0.0 µM and the “(GR)6” value ((GR)10 [2]; immobilized - 60 min reaction) was 0.0 µM. For the same molecule, the “(GR)8” value ((GR)10 [2]; immobilized - 60 min reaction) was 0.0 µM, the “(GR)10” value ((GR)10 [2]; immobilized - 60 min reaction) was 0.0 µM and the “(GR)1” value ((GR)10 [2]; resin wash from 5 min reaction) was 131.9 µM. The “(GR)2” value ((GR)10 [2]; resin wash from 5 min reaction) was 0.0 µM, the “(GR)3” value ((GR)10 [2]; resin wash from 5 min reaction) was 0.0 µM and the “(GR)4” value ((GR)10 [2]; resin wash from 5 min reaction) was 0.0 µM. For the same molecule, the “(GR)5” value ((GR)10 [2]; resin wash from 5 min reaction) was 0.0 µM, the “(GR)6” value ((GR)10 [2]; resin wash from 5 min reaction) was 0.0 µM and the “(GR)8” value ((GR)10 [2]; resin wash from 5 min reaction) was 0.0 µM. The “(GR)10” value ((GR)10 [2]; resin wash from 5 min reaction) was 0.0 µM, the “(GR)1” value ((GR)10 [2]; [3]) was 145.7 µM and the “(GR)2” value ((GR)10 [2]; [3]) was 0.0 µM. For the same molecule, the “(GR)3” value ((GR)10 [2]; [3]) was 0.0 µM, the “(GR)4” value ((GR)10 [2]; [3]) was 0.0 µM and the “(GR)5” value ((GR)10 [2]; [3]) was 0.0 µM. For the same molecule, the “(GR)6” value ((GR)10 [2]; [3]) was 0.0 µM, the “(GR)8” value ((GR)10 [2]; [3]) was 0.0 µM and the “(GR)10” value ((GR)10 [2]; [3]) was 0.0 µM.
